Consider eight molecules from US20240067751A1 (KEYMED BIOSCIENCES, published 2024).

The chains are these.
B1: chimeric antibody 25L15 (antibody, V domains shown)
VH: KVKLVESGGDLVKPGGSLKISCAASGFTFSNYAMSWIRQTPDKRLEWVATVSSGGPYTYYPDSVKGRFTISRDNAENTLYLQMSSLRSDDTAIYYCARQIYSDYDVTYWGQGTLVTVSA
VL: QIVLSQSPAILSASPGETVTMTCRVSSSVSYMYWLQQKPGSSPKPWIYATSNLASGVPARFSGSGSGTSYSLTITRVEAEDAATYYCQQWSFRPWTFGGGTKLEIK
B2: chimeric antibody 3B9 (antibody, V domains shown)
VH: DVQLQESGPGLVRPSQSLSLTCTVTGYSITSDYAWNWIRQFPGNKLEWMGYISYSGRTSYNPSLKSRLSITRDTSKNQFFLQLNSVSSADTATYYCAIISTAVDFDYWGQGTTLTVSS
VL: QTVLTQSPAIMSASLGERVTMTCTASSSVSSSYLLWYQQKPGSSPKLWIYSTSKLASGVPVRFSGSGSGTSYSLTISSMEADDAATYYCLQYNRSPLTFGAGTKLELK
B3: chimeric antibody 16A17 (antibody, V domains shown)
VH: DVQLQESGPGLVKPSQSLSLTCTVTGYSITSDYAWKWIRQFPGNKLEWMGYISYSGSTSYHPSLKGRISITRDTSKNQFFLQLNSVTADDTATYYCAILGYYAMDYWGQGTSVTVSS
VL: DIVMTQSQKFMSTSVGDRVSITCKASQNVRVDVAWYQQKSGQSPRALIYLASNRHTGVPDRFTGSGSGTDFTLTITNVQSEDLADYFCPQHWSYPLTFGGGTKLEIK
B4: chimeric antibody 1B2 (antibody, V domains shown)
VH: DVQLQESGPGLVKPSQSLSLTCTVTGYSITSDYAWNWIRQFSGDKLEWMGYISYSGSTSYNPSLKSRISITRDTSKNQFFLHLSSVTTEDTATYFCARYWGDYWGHGTTLTVSS
VL: DSVMTQSQKFMSTSVGDRVSVTCKASHNVGTNVAWFQQKPGQSPKGLIYSASYRSSGVPDRFTGSGSGTDFTLTISNVQSEDLAEYFCLQYNSNPLTFGGGTKLEVK
B5: chimeric antibody 10L3 (antibody, V domains shown)
VH: DVQLQESGPGLVKPSQSLSLTCTVTGYSITSDYAWNWIRQFPGNKLEWMGYISYSGRTSYNPSLKSRISITRDTSKNQFFLQLNSVTTEDTATYYCAKLGGGHGMDYWGQGTSVTVSS
VL: IVMTQSQKFMSTSVGDRVSVTCKASQNVDTNVAWYQQKPGQSPKALIYSASYRYSGVPDRFTGSGSGTDFTLTISNVQSEDLAEYFCLQYNSYLTFGSGTKLELK
B6: chimeric antibody 28O14 (antibody, V domains shown)
VH: QVQLQQSGTELARPGASVRMSCKASGYTFRSHTMHWVKQRPGQGLEWIGYINPSTGYINYNQKFKDKATLTADKSSSTAYMQLSSLTSEDSAVYYCARSNYSYYYGMDYWGQGTSVTVSS
VL: DIVMTQSHKFMSTSVGDRVTITCKASQDVNTAVAWYQQKPGQSPKLLIYSASYRYTGVPDRFTGSGSGTDFTFTISSLQAEDLAVYYCQQHYNIPLTFGAGTKLELK
B7: Fab antibody 14F11 (Fab, V domains shown)
VH: QVQLQQSGPQLLRPGASVKISCKASGFSFTNHWIHWVKQRPGQGLEWIGMIDPSDSETGLNQKFRDKATLTVDKSSSTAYMHLNSPTSEDSAVYYCARLGIHDGYYIYAMDFWGQGTSVTVSS
VL: NIVMTQSPKSMSMSVGERVTLSCKASENVGTYVSWYQQKPEQSPKLLIYGASNRYTGVPDRFTGSGSATDFTLTISSVQAEDLADYHCGQSYSYPLTFGAGTKLELK
notes: Purified murine Fab with Flag tag from the phage display library; also called mAb 14F11
B8: Fab antibody 16B11 (Fab, V domains shown)
VH: QMQLQESGPGLVKPSQSLSLTCTVTGYSITSDYAWNWIRQFPGNKLEWMGYISYSGRTSYNPSLKSRISITRDTSKNQFFLQLNSVTTEDTATYYCARHYGDYWGQGTTLTVSS
VL: DIVMTQSQKLMSTSVGDRVSVTCKASQNVGTNVAWYQQKPGQSPKALIYSASYRNSGVPDRFTGSGSGTDFTLTISNVQSEDLAEYFCQQFNTNPLTFGSGTKLEIK
notes: Purified murine Fab with Flag tag from the phage display library; also called mAb 16B11

T3 sequence (Q91WP0 other isoform, or with tags, fused parts or gaps limits assumed): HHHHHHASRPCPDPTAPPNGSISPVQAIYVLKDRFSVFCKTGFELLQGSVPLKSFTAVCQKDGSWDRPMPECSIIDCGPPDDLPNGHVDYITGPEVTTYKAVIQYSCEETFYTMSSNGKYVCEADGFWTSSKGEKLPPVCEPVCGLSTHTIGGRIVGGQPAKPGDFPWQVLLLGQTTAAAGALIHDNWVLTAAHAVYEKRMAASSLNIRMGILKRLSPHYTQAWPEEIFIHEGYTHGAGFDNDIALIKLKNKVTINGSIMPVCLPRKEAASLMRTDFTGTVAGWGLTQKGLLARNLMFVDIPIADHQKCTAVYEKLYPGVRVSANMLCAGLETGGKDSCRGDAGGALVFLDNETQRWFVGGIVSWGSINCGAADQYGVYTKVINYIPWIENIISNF
T4 sequence (O00187 other isoform, or with tags, fused parts or gaps limits assumed): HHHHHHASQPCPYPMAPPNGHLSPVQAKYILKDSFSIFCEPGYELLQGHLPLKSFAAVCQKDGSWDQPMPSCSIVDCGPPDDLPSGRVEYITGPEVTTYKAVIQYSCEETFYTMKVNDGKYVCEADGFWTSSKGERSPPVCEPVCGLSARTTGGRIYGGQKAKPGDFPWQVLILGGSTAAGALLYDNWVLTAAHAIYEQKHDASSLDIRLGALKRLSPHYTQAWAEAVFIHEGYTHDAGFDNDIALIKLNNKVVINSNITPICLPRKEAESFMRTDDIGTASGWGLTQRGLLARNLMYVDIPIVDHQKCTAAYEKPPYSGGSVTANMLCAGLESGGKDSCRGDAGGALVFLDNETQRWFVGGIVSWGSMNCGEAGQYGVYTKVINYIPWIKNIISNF

The target in one assay is T1, human MASP-2 D4-6 recombinant protein (human, UniProt O00187 298-686).
T1 construct: his6 tag fused at the N-terminus, made in HEK293E; also called enzymatic activity domains CCP1-CCP2-SP of human MASP-2
T1 sequence (O00187 other isoform, or with tags, fused parts or gaps limits assumed): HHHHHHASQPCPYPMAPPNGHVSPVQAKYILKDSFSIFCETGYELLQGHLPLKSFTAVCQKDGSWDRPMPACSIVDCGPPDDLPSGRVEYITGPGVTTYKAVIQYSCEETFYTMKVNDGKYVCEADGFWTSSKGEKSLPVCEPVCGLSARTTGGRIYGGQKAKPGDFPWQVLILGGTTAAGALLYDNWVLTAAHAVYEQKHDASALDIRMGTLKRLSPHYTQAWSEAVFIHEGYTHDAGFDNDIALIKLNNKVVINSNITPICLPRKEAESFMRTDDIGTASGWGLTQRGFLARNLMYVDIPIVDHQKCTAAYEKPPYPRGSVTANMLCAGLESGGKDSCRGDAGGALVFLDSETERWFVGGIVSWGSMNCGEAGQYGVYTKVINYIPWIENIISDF
As to the kind of experiment: SPR Biacore T200, antibody on Protein A chip, antigen as analyte, 1:1 fit. How it is done: (§1) Surface plasmon resonance technology (SPR/Biacore T200) was used to capture 0.1 μg/ml of the antibody on the surface of the Protein A chip, with a capture time of 40 seconds and a flow rate of 10 μl/min. The chip was washed with buffer until the baseline leveled off, then gradient-diluted antigen was flowed through the chip at the flow rate of 30 μl/min, with a binding time of 120 sec and a dissociation time of 600 sec. The equilibrium dissociation constant (KD) was obtained by fitting in Langmuir 1:1 kinetics mode.
(In general: In SPR one partner is held on a chip, and binding of the other changes the refractive index at the surface.)
A word on the Kd: it is the equilibrium constant for the complex coming apart. On to B1, for which the Kd was determined as 0.12 nM.

On to B2, for which the Kd turned out to be 0.067 nM.

For B3, the Kd stood at 0.008 nM.

Take B4: the Kd was determined as 0.002 nM.

Regarding B5, the Kd turned out to be 0.07 nM.

On to B6, for which the Kd came out at 0.09 nM.

The target of a further assay is T2, rat MASP-2 D4-6 recombinant protein (rat, UniProt Q9JJS8 298-685).
T2 construct: Made 'similarly' to the human protein (N-terminal his6 tag)
T2 sequence (Q9JJS8 other isoform, or with tags, fused parts or gaps limits assumed): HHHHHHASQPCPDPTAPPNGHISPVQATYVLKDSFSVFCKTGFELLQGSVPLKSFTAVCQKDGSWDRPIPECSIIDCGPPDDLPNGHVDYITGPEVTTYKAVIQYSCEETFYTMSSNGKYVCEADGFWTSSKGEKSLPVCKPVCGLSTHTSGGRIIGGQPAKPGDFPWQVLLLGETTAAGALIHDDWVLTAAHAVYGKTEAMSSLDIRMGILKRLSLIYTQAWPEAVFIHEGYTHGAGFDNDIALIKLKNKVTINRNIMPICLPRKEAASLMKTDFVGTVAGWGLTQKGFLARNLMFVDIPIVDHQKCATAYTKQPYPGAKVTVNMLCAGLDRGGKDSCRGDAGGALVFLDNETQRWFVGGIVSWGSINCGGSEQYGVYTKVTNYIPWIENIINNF
The description is as above. As for the experimental part:
as §1
On to B1, for which the Kd was found to be 167 nM.

Take B2: the Kd was 1040 nM.

With B6, the Kd turned out to be 162 nM.

A further assay addresses T3, mouse MASP-2 D4-6 recombinant protein (mouse, UniProt Q91WP0 298-685).
T3 construct: Made 'similarly' to the human protein (N-terminal his6 tag)
The assay is described as above. How it is done: as §1
As to B1, the Kd turned out to be 499 nM.

Turning to B2, the Kd turned out to be 476 nM.

Turning to B3, the Kd amounted to 487 nM.

Regarding B4, the Kd was determined as 632 nM.

On to B5, for which the Kd is 214 nM.

Regarding B6, the Kd came out at 767 nM.

A further assay has as its target T4, Cynomolgus monkey MASP-2 D4-6 recombinant protein (Cynomolgus monkey, UniProt O00187 298-686 (human entry), limits assumed).
T4 construct: Made 'similarly' to the human protein (N-terminal his6 tag)
Described as above. How it is done:
as §1
With B1, the Kd was found to be 0.92 nM.

For the molecule B2, the Kd came to 0.051 nM.

Consider B3, for which the Kd was 0.063 nM.

On to B4, for which the Kd was 0.078 nM.

For B5, the Kd was 1.29 nM.

For the molecule B6, the Kd worked out at 0.01 nM.

The target of a further assay is T1, human MASP-2 D4-6 recombinant protein. As to the kind of experiment: ELISA, antigen coated, chimeric IgG titrated, anti-human Fc-HRP. Background: An ELISA detects its analyte on a solid surface through an enzyme-linked reagent.
In general, EC50 refers to the concentration giving half of the maximal effect. On to B1, for which the EC50 was determined as 0.012 nM.

For B2, the EC50 stood at 0.025 nM.

As to B3, the EC50 came to 0.014 nM.

In the case of B4, the EC50 was 0.015 nM.

For B5, the EC50 stood at 0.022 nM.

B6: the 50% effective concentration (EC50) came to 0.033 nM.

The target in the next assay is T2, rat MASP-2 D4-6 recombinant protein. The assay is described as above.
Take B1: the EC50 was found to be 0.021 nM.

Turning to B2, the EC50 stood at 1.62 nM.

On to B3, for which the EC50 turned out to be 4.3 nM.

Turning to B4, the EC50 stood at 1.44 nM.

With B5, the EC50 was determined as 30.2 nM.

Another assay deals with T3, mouse MASP-2 D4-6 recombinant protein. Described as above.
In the case of B1, the EC50 was 0.023 nM.

Regarding B2, the EC50 came to 4.39 nM.

As to B3, the EC50 was 1.97 nM.

Turning to B4, the EC50 was 0.947 nM.

Regarding B5, the EC50 worked out at 30.9 nM.

A further assay addresses T4, Cynomolgus monkey MASP-2 D4-6 …. Described as above.
For B1, the EC50 worked out at 0.008 nM.

On to B2, for which the EC50 was 0.038 nM.

Regarding B3, the EC50 worked out at 0.014 nM.

As to B4, the EC50 amounted to 0.014 nM.

Take B5: the EC50 worked out at 0.016 nM.

As to B6, the half-maximal effective concentration (EC50) was 0.043 nM.

The next assay has as its target T1, human MASP-2 D4-6 recombinant protein. Description: SPR Biacore T200, Flag-tagged Fab captured via anti-Flag antibody on Protein A chip, antigen as analyte, 1:1 fit. As for the experimental part: (§2) The surface plasmon resonance (SPR/Biacore T200) technique was used to capture the anti-Flag antibody with Protein A chip. 10 μg/ml purified Fab antibody containing Flag tag was captured on the chip surface, with a capture time of 40 sec and a flow rate of […]. The chip was washed with buffer until the baseline leveled off, then gradient-diluted MASP-2 antigens were injected as the analytes successively to determine the affinity between Fab and different species antigens. The data were fitted by Biacore T200 Evaluation software 3.1 software in Langmuir 1:1 kinetics mode.
Broadly, the koff is a measure of how fast the partners let go of each other. Broadly, the kon is the second-order rate constant of association. For B7, the Kd was determined as 0.172 nM, the koff stood at 0.000163 s⁻¹ and the kon was found to be 948000 M⁻¹ s⁻¹.

Regarding B8, the Kd came to 0.0407 nM, the koff is 8.75e-05 s⁻¹ and the kon was determined as 2.15e+06 M⁻¹ s⁻¹.

In the next assay the target is T2, rat MASP-2 D4-6 recombinant protein. Described as above. How it is done: as §2
B7: the Kd came out at 0.546 nM, the koff came out at 0.00182 s⁻¹ and the kon stood at 3.34e+06 M⁻¹ s⁻¹.

As to B8, the Kd was found to be 5.06 nM, the koff turned out to be 0.00931 s⁻¹ and the kon is 1.84e+06 M⁻¹ s⁻¹.

In the next assay the target is T3, mouse MASP-2 D4-6 recombinant protein. The assay is described as above. As for the experimental part: as §2
Consider B7, for which the Kd came to 18 nM, the koff was determined as 1.16 s⁻¹ and the kon was 6.44e+07 M⁻¹ s⁻¹.

With B8, the Kd was found to be 1.76 nM, the koff was 0.00811 s⁻¹ and the kon was found to be 4.61e+06 M⁻¹ s⁻¹.

In a further assay the target is T4, Cynomolgus monkey MASP-2 D4-6 …. Described as above. As for the experimental part:
as §2
Turning to B7, the Kd is 4.66 nM.

With B8, the Kd was 0.109 nM, the koff was found to be 0.000181 s⁻¹ and the kon came out at 1.66e+06 M⁻¹ s⁻¹.
